Results from article PMC2997469 (Bioorganic & medicinal chemistry letters, 2010).
No end group written: not given here.

Tests used:
[1] = biological target: T1, XIAP protein containing linker-BIR2–BIR3; experiment: fluorescence polarisation
T1 chain: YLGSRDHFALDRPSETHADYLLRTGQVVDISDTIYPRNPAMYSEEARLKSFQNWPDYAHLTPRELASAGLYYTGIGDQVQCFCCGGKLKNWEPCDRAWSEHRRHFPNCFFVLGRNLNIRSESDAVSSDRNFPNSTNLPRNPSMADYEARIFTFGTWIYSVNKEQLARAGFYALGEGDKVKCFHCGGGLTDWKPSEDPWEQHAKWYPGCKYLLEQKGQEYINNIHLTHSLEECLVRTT

[2] = biological target: T2, cIAP-1 BIR3 protein; experiment: fluorescence polarisation
T2 chain: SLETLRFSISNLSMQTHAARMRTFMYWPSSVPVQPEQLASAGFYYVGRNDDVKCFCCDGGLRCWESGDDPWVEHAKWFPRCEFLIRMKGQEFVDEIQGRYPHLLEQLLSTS

Binder: AKPF (also: cyclopeptidic structure not given here) [PSmac-21 (compound 1), cyclopeptidic Smac mimetic]
- IC50 site 1 [1]: 1 nM
- IC50 site 2 [1]: 481 nM
- Ki [2]: 84 ± 9 nM
